Reference: paper PMC12016517, “Transcriptional regulation of two redundant 3-bromo-4-hydroxybenzoate catabolic operons via two different regulatory modes in Pigmentiphaga kullae strain H8” (Applied and Environmental Microbiology, 2025)
“And” between values parts separate entries of the source, which are not always exact repeats. Equal entries are not always repeated.

Tests used:
[1] = molecular target: T1, BhbR2 (MarR-family transcription factor); experiment: SPR (Biacore T200, protein immobilized on CM7 chip, steady-state affinity); type: binding, Pigmentiphaga kullae
T1 construct: C-terminal His-tagged BhbR2 (179 amino acids), expressed in E. coli BL21(DE3)

[2] = molecular target: T2, BhbR1 (LysR-type transcriptional regulator); experiment: as above; type: binding, Pigmentiphaga kullae
T2 construct: C-terminal His-tagged BhbR1 (302 amino acids), expressed in E. coli BL21(DE3)

[3] = test system: T3, BhbR1 (LysR-type regulator) (Pigmentiphaga kullae H8), ORF:3710a82b; experiment: SPR; conditions: EMSA BhbR1: 100 mM Tris-HCl pH 8.0, 50 mM KCl, 5% glycerol, 1 mM DTT, BhbR2: 50 mM Tris-HCl pH 8.0, 30 mM KCl, 1 mM EDTA, 5 mM DTT, 25 C, 30 min. …
T3 sequence: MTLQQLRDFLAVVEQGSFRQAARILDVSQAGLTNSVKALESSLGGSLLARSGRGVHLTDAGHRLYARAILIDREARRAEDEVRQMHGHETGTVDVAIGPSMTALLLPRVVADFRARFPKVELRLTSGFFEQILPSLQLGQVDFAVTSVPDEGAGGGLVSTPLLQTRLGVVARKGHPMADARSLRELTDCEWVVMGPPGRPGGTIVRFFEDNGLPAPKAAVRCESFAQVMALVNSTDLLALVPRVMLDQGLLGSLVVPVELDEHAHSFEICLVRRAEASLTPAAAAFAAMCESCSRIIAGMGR

[4] = test system: BhbR2 (MarR-family regulator) (Pigmentiphaga kullae H8); experiment: SPR; conditions: EMSA BhbR1: 100 mM Tris-HCl pH 8.0, 50 mM KCl, 5% glycerol, 1 mM DTT, BhbR2: 50 mM Tris-HCl pH 8.0, 30 mM KCl, 1 mM EDTA, 5 mM DTT, 25 C, 30 min. …
[5] = test system: BhbR1 (LysR-type regulator) (Pigmentiphaga kullae H8); experiment: SPR; conditions: EMSA BhbR1: 100 mM Tris-HCl pH 8.0, 50 mM KCl, 5% glycerol, 1 mM DTT, BhbR2: 50 mM Tris-HCl pH 8.0, 30 mM KCl, 1 mM EDTA, 5 mM DTT, 25 C, 30 min. …
[6] = test system: T3, BhbR1 (LysR-type regulator) (Pigmentiphaga kullae H8), ORF:3710a82b; experiment: EMSA; conditions: EMSA BhbR1: 100 mM Tris-HCl pH 8.0, 50 mM KCl, 5% glycerol, 1 mM DTT, BhbR2: 50 mM Tris-HCl pH 8.0, 30 mM KCl, 1 mM EDTA, 5 mM DTT, 25 C, 30 min. …
[7] = test system: T4, BhbR2 (MarR-family regulator) (Pigmentiphaga kullae H8), ORF:e62c0bd9; experiment: EMSA; conditions: EMSA BhbR1: 100 mM Tris-HCl pH 8.0, 50 mM KCl, 5% glycerol, 1 mM DTT, BhbR2: 50 mM Tris-HCl pH 8.0, 30 mM KCl, 1 mM EDTA, 5 mM DTT, 25 C, 30 min. …
T4 sequence: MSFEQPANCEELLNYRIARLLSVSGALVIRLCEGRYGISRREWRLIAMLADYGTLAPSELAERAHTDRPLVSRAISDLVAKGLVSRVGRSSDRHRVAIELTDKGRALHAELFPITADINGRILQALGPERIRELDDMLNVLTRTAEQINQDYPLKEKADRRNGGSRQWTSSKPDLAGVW

[8] = test system: T4, BhbR2 (MarR-family regulator) (Pigmentiphaga kullae H8), ORF:e62c0bd9; experiment: SPR; conditions: EMSA BhbR1: 100 mM Tris-HCl pH 8.0, 50 mM KCl, 5% glycerol, 1 mM DTT, BhbR2: 50 mM Tris-HCl pH 8.0, 30 mM KCl, 1 mM EDTA, 5 mM DTT, 25 C, 30 min. …
[9] = molecular target: LysR-type transcriptional regulator BhbR1 (Pigmentiphaga kullae strain H8); experiment: SEC; gel filtration on Superose 6 10/300 GL, 25°C, PBS pH 7.8, 0.4 mL/min, calibrated with protein molecular weight markers; oligomeric state of the purified regulator
[10] = molecular target: MarR-family transcription factor BhbR2 (Pigmentiphaga kullae strain H8); experiment: as above

Work on O=C(O)c1ccc(O)c(Br)c1 [3-Br-4-HB, 3-bromo-4-hydroxybenzoate] yielded a Kd [1] of 2100 nM and a Kd [2] of 2200 nM.

In the case of “ACCAGCAAGGAACGTGCCCCGTGATCCGCGGTTGCTGATAGCAAACCGTTATCGAGATAAGGAAAAACTGGCTTTTCGCTGTGCGCGTGGATCGTGATACTGCCGCCGGGCCTGGATGAACGGGCCCGGCAACGGAACTACGAC (double strand) [Fphbh1 (Fpbhb1)]”, the Kd [3] is reported as 0.7 nM and 1.2 nM.

Compound FpcaA2 has a Kd ([4]; 5 uM 3-Br-4-HB) of 259 nM and a Kd ([4]; no inducer) of 397 nM.

Fphbh1 (Fpbhb1) was tested, and the Kd ([5]; 5 uM 3-Br-4-HB) was 1.2 nM and the Kd ([5]; no inducer) was 0.7 nM.

“GAACTCGAGGTGCTGTCGATTTGTGCCATGTTGATCTCCTTCATGGACGCCGGCGGCTTCCACGCCTGCGTCCGGGGACGAGAAACTGCGGAAGCGTCGGGATACCAGCAAGGAACGTGCCCCGTGATCCGCGGTTGCTGATAGCAAACCGTTATCGAGATAAGGAAAAACTGGCTTTTCGCTGTGCGCGTGGATCGTGATACTGCCGCCGGGCCTGGATGAACGGGCCCGGCAACGGAACTACGACCCACGACTAGTTTC (double strand) [PbR1 (Pphbh1 promoter probe, EMSA)]” was tested, and the binding [6] was “binds”.

“GAACTCGAGTGATGCCGTAGCGGCCTTCGCACAACCGGATCACCAGCGCCCCGCTGACCGACAGCAGCCTGGCTATCCGGTAGTTCAGGAGTTCCTCGCAATTTGCGGGCTGCTCGAAGGACATGGCTGCTCCTGTGCCGACGGCGGTTGATTAGAACAATCAAGGACATGAAAGCTAGAGTCATTCTCCATAAAAAGCCCAGCAGCCGCAACGCCATACGCCGGCGCGGCCCTGGTCGTTTTCCCTCTACCCAAGGAGCATTGCCCACTAGTTTC (double strand) [PbR2 (PpcaA2 promoter probe, EMSA)]” was tested, and the binding [7] was “binds”.

For “GGGCAATGCTCCTTGGGTAGAGGGAAAACGACCAGGGCCGCGCCGGCGTATGGCGTTGCGGCTGCTGGGCTTTTTATGGAGAATGACTCTAGCTTTCATGTCCTTGATTGTTCTAATCAACCGCCGTCGGCACAGGAGCAGCCATGTCCTTCG (double strand) [FpcaA2]”, the Kd [8] was 397 nM and 259 nM.

“LysR-type transcriptional regulator BhbR1 (natural protein)” was tested, and the stoichiometry N [9] was 4.

With “MarR-family transcription factor BhbR2 (natural protein)” the stoichiometry N [10] was 2.

In the case of “TAATCCGACATCGGCCGCTCCAATAGTGAGAGGTCTTGCGATCCCCCCCTTTCCCCCGTAGGGCGTATGCGGTATTAGCTACGCTTTCGCGTAGTTATCCCCCGCTACTGGGCACGTTCCGATGCATTACTCACCCGTTCGCCACTCGCCGC (double strand) [Pb16S]”, the binding [6] is reported as “no binding” and the binding [7] is reported as “no binding”.
